Measured values from PMC4285857 (Proteins, 2013).
Each block holds one binder with its values, some of them ahead of it.

Legend:
[1] = molecular target: T1, recombinant human IL-23R-IgG chimera (human, UniProt Q5VWK5 24-355, glycosylated); assay: ELISA
T1 sequence (looked up): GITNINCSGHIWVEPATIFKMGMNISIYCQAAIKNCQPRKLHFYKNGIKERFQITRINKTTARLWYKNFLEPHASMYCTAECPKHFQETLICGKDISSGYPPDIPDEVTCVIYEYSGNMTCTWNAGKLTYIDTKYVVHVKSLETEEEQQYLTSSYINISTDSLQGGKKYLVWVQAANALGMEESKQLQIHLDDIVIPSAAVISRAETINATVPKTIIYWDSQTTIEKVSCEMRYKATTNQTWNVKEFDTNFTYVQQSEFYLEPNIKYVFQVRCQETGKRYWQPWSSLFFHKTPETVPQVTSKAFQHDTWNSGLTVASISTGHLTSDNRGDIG

[2] = molecular target: T2, H-exIL-23R, recombinant extracellular part of the human IL-23 receptor with N-terminal His6 tag (human, UniProt Q5VWK5 24-350); assay: ELISA
T2 sequence (looked up): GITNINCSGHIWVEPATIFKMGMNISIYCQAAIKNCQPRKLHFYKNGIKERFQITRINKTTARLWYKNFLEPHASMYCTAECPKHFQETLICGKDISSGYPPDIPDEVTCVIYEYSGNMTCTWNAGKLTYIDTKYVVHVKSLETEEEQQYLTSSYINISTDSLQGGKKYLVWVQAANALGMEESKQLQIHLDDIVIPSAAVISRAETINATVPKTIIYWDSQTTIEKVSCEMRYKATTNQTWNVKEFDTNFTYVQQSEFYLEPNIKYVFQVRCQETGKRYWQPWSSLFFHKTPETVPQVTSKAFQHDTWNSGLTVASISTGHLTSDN

[3] = molecular target: T1, recombinant human IL-23R-IgG chimera; assay: SPR

Binder: His6-LAEAKVLANRELDKYGVSDHYKNWINPARRVRPVKWLIDAILAALP-{TolA-AviTag(biotin)} (designed binder, not fully specified) [His6-REX125-TolA-AVI]
Kd [3]: ~1 nM

Binder: His6-LAEAKVLANRELDKYGVSDYYKNRINPACHVLSVKSNIDWILASLP-{TolA-AviTag(biotin)} (designed binder, not fully specified) [His6-REX009-TolA-AVI]
Kd [3]: 1.3 nM

Now from value to binder:

binding result [1]: binds
B1: DH-MBP-p19, double-His6-MBP-p19 fusion protein with a C-terminal 40 aa solubility-supporting prolongation (ligand, human)
chain: RAVPGGSSPAWTQCQQLSQKLCTLAWSAHPLVGHMDLREEGDEETTNDVPHIQCGDGCDPQGLRDNSQFCLQRIHQGLIFYEKLLGSDIFTGEPSLLPDSPVGQLHASLLGLSQLLQPEGHHWETQQIPSLSPSQPWQRLLLRFKILRSLQAFVAVAARVFAHGAATLSPLEKKTCTSRASSTTTTTTEIRLLTKPERKLSWLLPPLSNN

binding result [2]: binds
Binder: His6-LAEAKVLANRELDKYGVSDRYKNSINRALPVAAVKWALDLILAWLP-{TolA-AviTag(biotin)} (designed binder, not fully specified) [His6-REX128-TolA-AVI]
